Test results as given in PMC6741143, “A putative merR family transcription factor Slr0701 regulates mercury inducible expression of MerA in the cyanobacterium Synechocystis sp. PCC6803” (MicrobiologyOpen, 2019).

B1: Pslr0701 50-bp oligonucleotide duplex (dsDNA)
DNA 1: TACTACAATATATTCCCTATACTTAGGTATAAGGTTGTAGGTTGATATAG
DNA 2: CTATATCAACCTACAACCTTATACCTAAGTATAGGGAATATATTGTAGTA
B2: 6x-His-Slr0701 protein (putative MerR family transcriptional regulator Slr0701) (natural protein, Synechocystis sp. PCC6803, UniProt Q55963 1-137, looked up)
chain: MSIMLTVSEVARKLGLNPQTLYFYERIGVVDHPQRNQSGYRVYQEKDLAILSFIRHAKDLGFSLEEIADILHLQSQQSLTCDEIYHKLTSKILQLESGIKEMEKMKDDLSKILSLCCQRISNGGKHGNCCLLNEQLT
notes: Slr0701, putative MerR family transcriptional regulator of Synechocystis sp; PCC6803; the slr0701 ORF amplified with primers from the start codon (GTG) to the stop codon and cloned into pET-28a(+) at NheI and EcoRI; not shown: His6, C-terminal, kept

Tests used:
[1] = biological target: T1, Slr0701 (6x-His, MerR family regulator) (Synechocystis sp. PCC6803, UniProt Q55963 1-137); assay: SPR; 62 uM HgCl2; EMSA: 20 ul, 80 ng DNA, 0.5 or 1 ug protein, binding buffer not specified, 30 min at 25 C, 6% native PAGE in 0.5x TBE at 4 C, SYBR Green; SPR: Biacore T200, SA; details: protein: recombinant; tags: 6xHis (text says C-terminal; pET-28a NheI/EcoRI clone, also written 6x-His-Slr0701); chain copies: 2; label: 5' biotin on strand 1; blunt
T1 sequence: B2 chain

[2] = biological target: the molecule itself; assay: SDS-PAGE without 2-mercaptoethanol; purified 6x-His-Slr0701 on 15% SDS-PAGE under semi-denaturing condition (without 2-mercaptoethanol), compared with a sample with 2-mercaptoethanol; monomer to dimer

Row | Binder | binding signal [1] | stoichiometry N [2]
1 | B1 | ~1000 fold higher affinity with HgCl2 than without | –
2 | B2 | – | 2
